Assay results taken from PMC10157173.

Assays:
[1] = target: Tag-free recombinant human HER3 ECD (Homo sapiens (Human).) (UniProt P21860); assay: ELISA; sandwich ELISA for bispecificity: tag-free EGFR, HER2 or HER3 coated at 1000 ng/ml in PBS; dilutions of BiXAb™ in PBS, 37°C, 1 h; then 1000 ng/ml of the His-tagged second receptor, 37°C, 1 h; detected with peroxidase-conjugated anti-His tag antibody
[2] = target: Tag-free recombinant human EGFR (Homo sapiens (Human).) (UniProt P00533); assay: as above

EC50 [1]: 0.55 nM | EC50 [2]: 170 nM
Substance: BiXAb™ 3Patri-1Matu-Fc (bispecific antibody)
